The values below come from publication PMC6740198 (Molecular Biology of the Cell, 2019).

The target of assay [1] is acetylcholine receptor (AChR) (mouse (endogenous in C2C12 myotubes and mouse muscle)) (UniProt P04756). Description: pull-down.
Assay [2] addresses CD4-AChR β subunit MA loop chimera (UniProt P09690 333-469). The assay is described as follows: co-IP.

B1: Flag-vezatin (natural protein, UniProt Q3ZK22 1-780, looked up)
chain: MTPEFDEEVVFENSPLYQYLQDLGHTDFEICSSSSPKPEKCLTTEGPQPPPTRVLQRQGILLKLTETIKSWTFSSQHSKKDDLLHKLDTGFRLDSLHTILQQEVLLQEDVELLELLDASILSAGQPQQESGHLPTLCSLATPNTWDVSLLFAFISLLIMFPTCWIVSSWLVWGIILFLYLIIRVLKLWRTAKLQMTLKKYRVRLEDMAANSRAFTNLVRKSLRLIQETEVISRGFTLVSAACSFNKAAQHPGQHLIGLRKAVYRTVRANFQAARLATLYMLKNYPLNSESDNVTNYICVVPFKELGLGLSEDQISEEEARNLTDGFSLPALKVLFQLWVAQSSEFFRRLALLLSTANSPSGPLLTAALLPHHILCDVTQGLPHAHSACLDELKRSYEFFRYFETQHQSVPQRLSKTPQKSRELSNVHTAVRSLQLHLKALLNEVIILEDELEKLVCTKETQELLSEAYPILEQKLKLIEPHVQASNSCWEEAISQVDKLLRRNTDKKGKPGVACENPHCTAEPLVRPALHIEDRDPIPEEQELEAYVDDIDIESEFRKDDFYHLSQEDRERQKREQEESRRVLQELKSVLGFKASEAERQKWKQLLFSDHAVLTSLSPVDPVESVSNSEPPMNSDTEKVNSNATEEETSKPCAGDKEDSRTEYVCDSPTEGPSKDTSADTGLLLPGAEETMCHQHESEAKSPQAAAAGATAPPTPRDTLQLSIKQRLARLQLPPEFTFSAGLAAEVAARSLSFTTMQEQTFGDEEEEQLVEGGENEVEEK
In assay [1], B1 showed a fold increase in association in rapsn−/− against rapsn+/− muscle of 1.8 fold and a fold increase in association with agrin treatment (against untreated myotubes) of 1.6 fold. For the same molecule, the “fold reduction of association when rapsyn-HA is coexpressed” value in assay [2] was 4 fold.
